Experimental data from patent publication US20220033481A1 (NANJING LEGEND BIOTECH, published 2022).

Columns and labels:
human transferrin [1] = target: T1, human transferrin (human, UniProt P02787 20-698); experiment: SPR, BIAcore T200, sdAb amine-coupled to CM5 chip, transferrin injected
Method: (§1) Experiments were performed using a BIAcore T200 optical sensor platform and research grade CM5 sensor chips (GE Healthcare). AS01274 sdAb and AS01299 sdAb were immobilized on the sensor chip surface by standard amine coupling. All experiments were carried out in HEPES buffer [10 mM HEPES (pH 7.4), 150 mM NaCl, 3.4 mM EDTA, 0.005% Tween 20] at 25° C. Human Transferrin and Cynomolgus monkey Transferrin were injected at serial dilutions ranging from 3.9 nM to 2000 nM at a flow rate of 30 μl/min unless otherwise indicated. The amount of bound analyte after subtraction from the blank control surface is shown as relative response units (RU). The double referenced sensorgrams from each injection series were analyzed for binding kinetics using BIA evaluation software (GE Healthcare). Dissociation constants (KDs) were calculated from the on- and off-rates (kₒₙ and koff, respectively), as determined by global fitting of the experimental data to a 1:1 Langmuir binding model (Chi²<1).

[2] = target: T2, cynomolgus monkey transferrin (cynomolgus monkey, UniProt A0A2K5UXZ0 20-695); experiment: as above
T2 construct: also called cynomolgus transferrin
Method: as §1

human transferrin [3] = target: T1, human transferrin; experiment: SPR, BIAcore T200, human transferrin amine-coupled to CM5 chip, sdAb injected
Method: as §1, with “Healthcare; Little Chalfont, United Kingdom). Human transferrin was” for “Healthcare). AS01274 sdAb and AS01299 sdAb were”, “Human Transferrin and Cynomolgus monkey Transferrin were injected at serial dilutions ranging from 3.9 nM to 2000 nM at a flow rate of 30 μl/min unless otherwise indicated.” left out

[4] = target: T2, cynomolgus monkey transferrin; experiment: SPR, BIAcore T200, cynomolgus monkey transferrin as ligand, sdAb as analyte

T1 sequence (P02787 20-698 limits assumed): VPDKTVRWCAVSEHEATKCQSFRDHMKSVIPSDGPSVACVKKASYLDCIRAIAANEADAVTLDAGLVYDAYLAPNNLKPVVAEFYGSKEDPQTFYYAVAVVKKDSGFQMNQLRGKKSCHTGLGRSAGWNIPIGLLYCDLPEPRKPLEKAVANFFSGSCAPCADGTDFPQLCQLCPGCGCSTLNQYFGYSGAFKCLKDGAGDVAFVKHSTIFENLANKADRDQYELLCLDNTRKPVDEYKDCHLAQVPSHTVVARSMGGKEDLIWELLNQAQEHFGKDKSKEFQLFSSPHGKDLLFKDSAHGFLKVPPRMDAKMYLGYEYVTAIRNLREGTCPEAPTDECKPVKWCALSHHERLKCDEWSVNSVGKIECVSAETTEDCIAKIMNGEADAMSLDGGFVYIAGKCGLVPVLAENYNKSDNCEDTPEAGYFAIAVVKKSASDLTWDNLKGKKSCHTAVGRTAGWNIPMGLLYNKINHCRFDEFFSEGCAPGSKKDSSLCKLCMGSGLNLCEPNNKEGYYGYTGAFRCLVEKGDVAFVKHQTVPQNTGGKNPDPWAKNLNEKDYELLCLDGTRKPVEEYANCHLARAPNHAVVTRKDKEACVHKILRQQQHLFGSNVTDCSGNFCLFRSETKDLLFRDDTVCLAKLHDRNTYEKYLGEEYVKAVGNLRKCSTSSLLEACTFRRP

| Binder | Kd (human transferrin [1]) [nM] | koff (human transferrin [1]) [s⁻¹] | kon (human transferrin [1]) [M⁻¹ s⁻¹] | Kd [2] [nM] | koff [2] [s⁻¹] | kon [2] [M⁻¹ s⁻¹] | Kd (human transferrin [3]) [nM] | koff (human transferrin [3]) [s⁻¹] | kon (human transferrin [3]) [M⁻¹ s⁻¹] | Kd [4] [nM] | koff [4] [s⁻¹] | kon [4] [M⁻¹ s⁻¹] |
| --- | --- | --- | --- | --- | --- | --- | --- | --- | --- | --- | --- | --- |
| AS01299 sdAb (VHH, Llama sdAb made in E. coli with a C-terminal 6xHis tag; also called sdAb AS01299) VHH: QVQLVESGGGLVQPGGSLRLSCAASGSIFSIATMAWYRQAPGKQRELVAGITRSGSTNYRDSVKGRFTISRDNAKNTMYLQMNSLKPEDTAVYYCTDYSSRYYHDYWGQGTQVTVSS | 140 | 0.0031 | 22000 | 8.8 | 0.00046 | 52000 | 0.98 | 0.0022 | 2.2e+06 | 0.065 | 0.00056 | 8.6e+06 |
| AS01299VH3a (VHH, Humanized variant of AS01299, C-terminal 6xHis tag) VHH: EVQLVESGGGLVQPGGSLRLSCAASGSIFSIATMAWYRQAPGKGLELVAGITRSGSTNYRDSVKGRFTISRDNSKNTMYLQMNSLRAEDTAVYYCTDYSSRYYHDYWGQGTLVTVSS | – | – | – | – | – | – | 1.3 | 0.0011 | 810000 | 0.057 | 0.00028 | 4.9e+06 |
| AS01299VH3a-A49 (VHH, Humanized variant of AS01299, C-terminal 6xHis tag) VHH: EVQLVESGGGLVQPGGSLRLSCAASGSIFSIATMAWYRQAPGKGLELVSGITRSGSTNYRDSVKGRFTISRDNSKNTMYLQMNSLRAEDTAVYYCTDYSSRYYHDYWGQGTLVTVSS | – | – | – | – | – | – | 2.4 | 0.001 | 420000 | 0.1 | 0.00027 | 2.6e+06 |
| AS01299VH4 (VHH, Humanized variant of AS01299, C-terminal 6xHis tag) VHH: EVQLVESGGGLVQPGGSLRLSCAASGSIFSIATMAWYRQAPGKGLELVSGITRSGSTNYRDSVKGRFTISRDNSKNTLYLQMNSLRAEDTAVYYCTDYSSRYYHDYWGQGTLVTVSS | – | – | – | – | – | – | 1.1 | 0.0011 | 1e+06 | 0.054 | 0.0003 | 5.7e+06 |
| AS01274 sdAb (VHH, Llama sdAb made in E. coli with a C-terminal 6xHis tag; also called sdAb AS01274) VHH: QVQLVESGGGLVQPGGSLRLSCVASGSIASIATMAWYRQAPGQQRELVAGITRGGSTKYADSVKGRFTISRDNAKNTLYLQMNSLKPDDTAVYYCTDYSRKYYQDYWGQGTQVTVSS | 16 | 0.00019 | 12000 | 1.6 | 4.4e-05 | 27000 | 0.09 | 0.0003 | 3.3e+06 | 0.0067 | 8.9e-05 | 1.3e+07 |
| AS01299VH3a-L47 (VHH, Humanized variant of AS01299, C-terminal 6xHis tag; also called AS01299VH3a-L47-2) VHH: EVQLVESGGGLVQPGGSLRLSCAASGSIFSIATMAWYRQAPGKGLEWVAGITRSGSTNYRDSVKGRFTISRDNSKNTMYLQMNSLRAEDTAVYYCTDYSSRYYHDYWGQGTLVTVSS | – | – | – | – | – | – | 3.7 | 0.0025 | 680000 | 0.053 | 0.00048 | 8.9e+06 |
| AS01299VH4-L47 (VHH, Humanized variant of AS01299, C-terminal 6xHis tag; also called AS01299VH4-L47-2) VHH: EVQLVESGGGLVQPGGSLRLSCAASGSIFSIATMAWYRQAPGKGLEWVSGITRSGSTNYRDSVKGRFTISRDNSKNTLYLQMNSLRAEDTAVYYCTDYSSRYYHDYWGQGTLVTVSS | – | – | – | – | – | – | 6 | 0.0035 | 590000 | 0.071 | 0.00066 | 9.3e+06 |
| AS01299VH3a-M78 (VHH, Humanized variant of AS01299, C-terminal 6xHis tag) VHH: EVQLVESGGGLVQPGGSLRLSCAASGSIFSIATMAWYRQAPGKGLELVAGITRSGSTNYRDSVKGRFTISRDNSKNTLYLQMNSLRAEDTAVYYCTDYSSRYYHDYWGQGTLVTVSS | – | – | – | – | – | – | 1.1 | 0.0012 | 1e+06 | 0.058 | 0.0003 | 5.2e+06 |
| AS01274VHa (VHH, Humanized variant of AS01274, C-terminal 6xHis tag) VHH: EVQLVESGGGLVQPGGSLRLSCAASGSIASIATMAWYRQAPGKGLELVAGITRGGSTKYADSVKGRFTISRDNSKNTLYLQMNSLRAEDTAVYYCTDYSRKYYQDYWGQGTLVTVSS | – | – | – | – | – | – | 0.13 | 0.0002 | 1.5e+06 | 0.011 | 8.1e-05 | 7.3e+06 |
| AS01274VHa-A49 (VHH, Humanized variant of AS01274, C-terminal 6xHis tag) VHH: EVQLVESGGGLVQPGGSLRLSCAASGSIASIATMAWYRQAPGKGLELVSGITRGGSTKYADSVKGRFTISRDNSKNTLYLQMNSLRAEDTAVYYCTDYSRKYYQDYWGQGTLVTVSS | – | – | – | – | – | – | 0.11 | 0.00016 | 1.5e+06 | 0.009 | 7.9e-05 | 8.7e+06 |
